Data published in the supplement of paper PMC5998384.

Experiments:
[1] = system: HeLa Kyoto; assay: solubility change mitosis vs G1/S (difference of NP-40 vs SDS log2 ratios) (log2 ratio difference); higher = more soluble in mitosis
[2] = system: HeLa Kyoto; assay: thermal stability score vs G1/S (z-score of summed log2 fold changes over temperatures); higher = more thermally stable than in G1/S
[3] = system: HeLa Kyoto; assay: solubility in G1/S (NP-40 vs SDS abundance) (log2 ratio); higher = more soluble; settings: cell cycle stage: G1/S
[4] = system: HeLa Kyoto; assay: melting temperature (median over replicates), in situ; higher = more thermally stable
[5] = cell cycle stage: early G1 (4.5 h after nocodazole release)
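Throughout, for melting temperature (median over replicates), in situ: HeLa Kyoto cells synchronized by double thymidine or nocodazole block, proteins quantified by TMT10plex mass spectrometry, three independent biological replicates.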
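Throughout, for solubility change mitosis vs G1/S (difference of NP-40 vs SDS log2 ratios): synchronized HeLa Kyoto cells (double thymidine block for G1/S, nocodazole release for mitosis), protein amounts in NP-40 versus SDS lysates quantified by mass spectrometry, three biological replicates.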
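Throughout, for solubility in G1/S (NP-40 vs SDS abundance): HeLa Kyoto cells arrested at G1/S by double thymidine block, proteins quantified by TMT10plex mass spectrometry in mild NP-40 versus SDS extracts, three biological replicates.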
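Throughout, for thermal stability score vs G1/S (z-score of summed log2 fold changes over temperatures): synchronized HeLa Kyoto cells, proteins quantified by TMT10plex mass spectrometry, three biological replicates, mitosis taken 0.5 h after nocodazole release, G1/S directly after double thymidine block.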

Sequence	solubility change mitosis (log2) [1]	thermal stability score [2, 5]	thermal stability score ([2]; cell cycle stage: mitosis)	solubility in G1/S (log2) [3]	melting temperature ([4]; cell cycle stage: G1/S)	melting temperature ([4]; cell cycle stage: mitosis)
MGKSRTKRFKRPQFSPTGDCQAEAAAAANGTGGEEDDGPAAELLEKLQHPSAEVRECACAGLARLVQQRPALPGLARRDAVRRLGPLLLDPSLAVRETAAGALRNLSACGGFEVCDDMVTKDIMTPLVALLKECSAGLDSNEMSLQEKKDQNRNSIENIANETVNVLWNICECSSRAVSIFNKEGCLEIVLKYLSRFPTNVDLAISVAYCLQTVTEDNPELLKSFSATALNMLESALLSPVSSMESLLLKTLVAGTIWNLKDIIPCKSQAEIINALLKILSEVLGMDAGEMVIQMKEAETQRLKTAAEAEEILENTNGDDLIEDDEMEGISHKRRVRRKTFVSDLLPPTDKELRETIALLTAQQTALEIIVNMCCNEDPSDDEWEELSSSDESDAFMENSFSECGGQLFSPLCLSHEVHTALTNYLIPKKIFEKTAFPNSIAVDLCSRNPTWKPLIRKMNTIQCRALFCLQSLVSLLDVEHLGGAAALQTLAQHLSQLLFSQPDFAKHVDFLEAISSALRALLQTMASKNISQCMTPDQLMTLCKAGIHSSNVGVRVNVVSILGITGSVLAKEDGTLETLKNIGCFLLEVTTKDPSLVVAGEALDALFDVFADGKEAERASIQIKLLSALKEFQPVFKMKIRKEGRGNYSTDQLCVLDNVKMNLRRFIAYQETVEKRLTS [HEATR3]	-0.138	1.72	3.45	0.0745	48.7 °C	48.8 °C
MGKVRGLRARVHQAAVRPKGEAAPGPAPPAPEATPPPASAAGKDWAFINTNIFARTKIDPSALVQKLELDVRSVTSVRRGEAGSSARSVPSIRRGAEAKTVLPKKEKMKLRREQWLQKIEAIKLAEQKHREERRRRATVVVGDLHPLRDALPELLGLEAGSRRQARSRESNKPRPSELSRMSAAQRQQLLEEERTRFQELLASPAYRASPLVAIGQTLARQMQLEDGGQL [FAM207A]	0.342	0.13	0.618	-0.11	48.3 °C	48.5 °C
MGLLRIMMPPKLQLLAVVAFAVAMLFLENQIQKLEESRSKLERAIARHEVREIEQRHTMDGPRQDATLDEEEDMVIIYNRVPKTASTSFTNIAYDLCAKNKYHVLHINTTKNNPVMSLQDQVRFVKNITSWKEMKPGFYHGHVSYLDFAKFGVKKKPIYINVIRDPIERLVSYYYFLRFGDDYRPGLRRRKQGDKKTFDECVAEGGSDCAPEKLWLQIPFFCGHSSECWNVGSRWAMDQAKYNLINEYFLVGVTEELEDFIMLLEAALPRFFRGATELYRTGKKSHLRKTTEKKLPTKQTIAKLQQSDIWKMENEFYEFALEQFQFIRAHAVREKDGDLYILAQNFFYEKIYPKSN [HS2ST1]	0.0318	-0.242	0.814	0.0386	55.1 °C	55.5 °C
MGNAAGSAEQPAGPAAPPPKQPAPPKQPMPAAGELEERFNRALNCMNLPPDKVQLLSQYDNEKKWELICDQERFQVKNPPAAYIQKLKSYVDTGGVSRKVAADWMSNLGFKRRVQESTQVLRELETSLRTNHIGWVQEFLNEENRGLDVLLEYLAFAQCSVTYDMESTDNGASNSEKNKPLEQSVEDLSKGPPSSVPKSRHLTIKLTPAHSRKALRNSRIVSQKDDVHVCIMCLRAIMNYQSGFSLVMNHPACVNEIALSLNNKNPRTKALVLELLAAVCLVRGGHDIILAAFDNFKEVCGEQHRFEKLMEYFRNEDSNIDFMVACMQFINIVVHSVENMNFRVFLQYEFTHLGLDLYLERLRLTESDKLQVQIQAYLDNIFDVGALLEDTETKNAVLEHMEELQEQVALLTERLRDAENESMAKIAELEKQLSQARKELETLRERFSESTAMGPSRRPPEPEKAPPAAPTRPSALELKVEELEEKGLIRILRGPGDAVSIEILPVAVATPSGGDAPTPGVPTGSPSPDLAPAAEPAPGAAPPPPPPLPGLPSPQEAPPSAPPQAPPLPGSPEPPPAPPLPGDLPPPPPPPPPPPGTDGPVPPPPPPPPPPPGGPPDALGRRDSELGPGVKAKKPIQTKFRMPLLNWVALKPSQITGTVFTELNDEKVLQELDMSDFEEQFKTKSQGPSLDLSALKSKAAQKAPSKATLIEANRAKNLAITLRKGNLGAERICQAIEAYDLQALGLDFLELLMRFLPTEYERSLITRFEREQRPMEELSEEDRFMLCFSRIPRLPERMTTLTFLGNFPDTAQLLMPQLNAIIAASMSIKSSDKLRQILEIVLAFGNYMNSSKRGAAYGFRLQSLDALLEMKSTDRKQTLLHYLVKVIAEKYPQLTGFHSDLHFLDKAGSVSLDSVLADVRSLQRGLELTQREFVRQDDCMVLKEFLRANSPTMDKLLADSKTAQEAFESVVEYFGENPKTTSPGLFFSLFSRFIKAYKKAEQEVEQWKKEAAAQEAGADTPGKGEPPAPKSPPKARRPQMDLISELKRRQQKEPLIYESDRDGAIEDIITVIKTVPFTARTGKRTSRLLCEASLGEEMPL [FMNL1]	-0.0294	1.48	2.85	0.507	47.7 °C	48.1 °C
MGNAGSMDSQQTDFRAHNVPLKLPMPEPGELEERFAIVLNAMNLPPDKARLLRQYDNEKKWELICDQERFQVKNPPHTYIQKLKGYLDPAVTRKKFRRRVQESTQVLRELEISLRTNHIGWVREFLNEENKGLDVLVEYLSFAQYAVTFDFESVESTVESSVDKSKPWSRSIEDLHRGSNLPSPVGNSVSRSGRHSALRYNTLPSRRTLKNSRLVSKKDDVHVCIMCLRAIMNYQYGFNMVMSHPHAVNEIALSLNNKNPRTKALVLELLAAVCLVRGGHEIILSAFDNFKEVCGEKQRFEKLMEHFRNEDNNIDFMVASMQFINIVVHSVEDMNFRVHLQYEFTKLGLDEYLDKLKHTESDKLQVQIQAYLDNVFDVGALLEDAETKNAALERVEELEENISHLSEKLQDTENEAMSKIVELEKQLMQRNKELDVVREIYKDANTQVHTLRKMVKEKEEAIQRQSTLEKKIHELEKQGTIKIQKKGDGDIAILPVVASGTLSMGSEVVAGNSVGPTMGAASSGPLPPPPPPLPPSSDTPETVQNGPVTPPMPPPPPPPPPPPPPPPPPPPPPLPGPAAETVPAPPLAPPLPSAPPLPGTSSPTVVFNSGLAAVKIKKPIKTKFRMPVFNWVALKPNQINGTVFNEIDDERILEDLNVDEFEEIFKTKAQGPAIDLSSSKQKIPQKGSNKVTLLEANRAKNLAITLRKAGKTADEICKAIHVFDLKTLPVDFVECLMRFLPTENEVKVLRLYERERKPLENLSDEDRFMMQFSKIERLMQKMTIMAFIGNFAESIQMLTPQLHAIIAASVSIKSSQKLKKILEIILALGNYMNSSKRGAVYGFKLQSLDLLLDTKSTDRKQTLLHYISNVVKEKYHQVSLFYNELHYVEKAAAVSLENVLLDVKELQRGMDLTKREYTMHDHNTLLKEFILNNEGKLKKLQDDAKIAQDAFDDVVKYFGENPKTTPPSVFFPVFVRFVKAYKQAEEENELRKKQEQALMEKLLEQEALMEQQDPKSPSHKSKRQQQELIAELRRRQVKDNRHVYEGKDGAIEDIITVLKTVPFTARTAKRGSRFFCEPVLTEEYHY [FMNL2]	-0.0897	0.436	0.612	-0.0432	50.8 °C	–
MGNGMCSRKQKRIFQTLLLLTVVFGFLYGAMLYYELQTQLRKAEAVALKYQQHQESLSAQLQVVYEHRSRLEKSLQKERLEHKKAKEDFLVYKLEAQETLNKGRQDSNSRYSALNVQHQMLKSQHEELKKQHSDLEEEHRKQGEDFSRTFNDHKQKYLQLQQEKEQELSKLKETVYNLREENRQLRKAHQDIHTQLQDVKQQHKNLLSEHEQLVVTLEDHKSALAAAQTQVAEYKQLKDTLNRIPSLRKPDPAEQQNVTQVAHSPQGYNTAREKPTREVQEVSRNNDVWQNHEAVPGRAEDTKLYAPTHKEAEFQAPPEPIQQEVERREPEEHQVEEEHRKALEEEEMEQVGQAEHLEEEHDPSPEEQDREWKEQHEQREAANLLEGHARAEVYPSAKPMIKFQSPYEEQLEQQRLAVQQVEEAQQLREHQEALHQQRLQGHLLRQQEQQQQQVAREMALQRQAELEEGRPQHQEQLRQQAHYDAMDNDIVQGAEDQGIQGEEGAYERDNQHQDEAEGDPGNRHEPREQGPREADPESEADRAAVEDINPADDPNNQGEDEFEEAEQVREENLPDENEEQKQSNQKQENTEVEEHLVMAGNPDQQEDNVDEQYQEEAEEEVQEDLTEEKKRELEHNAEETYGENDENTDDKNNDGEEQEVRDDNRPKGREEHYEEEEEEEEDGAAVAEKSHRRAEM [GOLIM4]	-0.0167	-2.18	-3.71	0.317	54 °C	53 °C
MGNRGMEELIPLVNKLQDAFSSIGQSCHLDLPQIAVVGGQSAGKSSVLENFVGRDFLPRGSGIVTRRPLILQLIFSKTEHAEFLHCKSKKFTDFDEVRQEIEAETDRVTGTNKGISPVPINLRVYSPHVLNLTLIDLPGITKVPVGDQPPDIEYQIKDMILQFISRESSLILAVTPANMDLANSDALKLAKEVDPQGLRTIGVITKLDLMDEGTDARDVLENKLLPLRRGYIGVVNRSQKDIEGKKDIRAALAAERKFFLSHPAYRHMADRMGTPHLQKTLNQQLTNHIRESLPALRSKLQSQLLSLEKEVEEYKNFRPDDPTRKTKALLQMVQQFGVDFEKRIEGSGDQVDTLELSGGARINRIFHERFPFELVKMEFDEKDLRREISYAIKNIHGVRTGLFTPDLAFEAIVKKQVVKLKEPCLKCVDLVIQELINTVRQCTSKLSSYPRLREETERIVTTYIREREGRTKDQILLLIDIEQSYINTNHEDFIGFANAQQRSTQLNKKRAIPNQGEILVIRRGWLTINNISLMKGGSKEYWFVLTAESLSWYKDEEEKEKKYMLPLDNLKIRDVEKGFMSNKHVFAIFNTEQRNVYKDLRQIELACDSQEDVDSWKASFLRAGVYPEKDQAENEDGAQENTFSMDPQLERQVETIRNLVDSYVAIINKSIRDLMPKTIMHLMINNTKAFIHHELLAYLYSSADQSSLMEESADQAQRRDDMLRMYHALKEALNIIGDISTSTVSTPVPPPVDDTWLQSASSHSPTPQRRPVSSIHPPGRPPAVRGPTPGPPLIPVPVGAAASFSAPPIPSRPGPQSVFANSDLFPAPPQIPSRPVRIPPGIPPGVPSRRPPAAPSRPTIIRPAEPSLLD [DNM2]	-0.144	1.01	1.14	0.212	50.5 °C	50 °C
MGPLPRTVELFYDVLSPYSWLGFEILCRYQNIWNINLQLRPSLITGIMKDSGNKPPGLLPRKGLYMANDLKLLRHHLQIPIHFPKDFLSVMLEKGSLSAMRFLTAVNLEHPEMLEKASRELWMRVWSRNEDITEPQSILAAAEKAGMSAEQAQGLLEKIATPKVKNQLKETTEAACRYGAFGLPITVAHVDGQTHMLFGSDRMELLAHLLGEKWMGPIPPAVNARL [GSTK1]	-0.098	-1.28	-0.907	0.121	50.9 °C	52 °C
MGQTVNEDSMDVKKENQEKTPQSSTSSVQRDDFHWEEYLKETGSISAPSECFRQSQIPPVNDFKVGMKLEARDPRNATSVCIATVIGITGARLRLRLDGSDNRNDFWRLVDSPDIQPVGTCEKEGDLLQPPLGYQMNTSSWPMFLLKTLNGSEMASATLFKKEPPKPPLNNFKVGMKLEAIDKKNPYLICPATIGDVKGDEVHITFDGWSGAFDYWCKYDSRDIFPAGWCRLTGDVLQPPGTSVPIVKNIAKTESSPSEASQHSMQSPQKTTLILPTQQVRRSSRIKPPGPTAVPKRSSSVKNITPRKKGPNSGKKEKPLPVICSTSAASLKSLTRDRGMLYKDVASGPCKIVMSTVCVYVNKHGNFGPHLDPKRIQQLPDHFGPGPVNVVLRRIVQACVDCALETKTVFGYLKPDNRGGEVITASFDGETHSIQLPPVNSASFALRFLENFCHSLQCDNLLSSQPFSSSRGHTHSSAEHDKNQSAKEDVTERQSTKRSPQQTVPYVVPLSPKLPKTKEYASEGEPLFAGGSAIPKEENLSEDSKSSSLNSGNYLNPACRNPMYIHTSVSQDFSRSVPGTTSSPLVGDISPKSSPHEVKFQMQRKSEAPSYIAVPDPSVLKQGFSKDPSTWSVDEVIQFMKHTDPQISGPLADLFRQHEIDGKALFLLKSDVMMKYMGLKLGPALKLCYYIEKLKEGKYS [SCML2]	0.137	4.21	8.66	-0.0128	44.9 °C	49.1 °C
